This data set relates to Escherichia coli TOP10. Nature of the data set: shrunken log2 fold change of peptide-encoding DNA abundance (4.5 h post-induction vs induction); higher = less antimicrobial activity (less host growth inhibition). The note with it: time post-induction: 4.5 h; library: site-saturation at positions 5, 18, 19, 20.
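Note: peptides expressed intracellularly from a pBAD plasmid library in pooled LB shake-flask culture, induced with 0.3% L-arabinose, DNA abundance read by NGS, three biological replicates, DESeq2 with apeglm shrinkage.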

As to RRIRERPPRLPRPRPRPNILPRP, the “shrunken log2 fold change” value was -0.991.
RRIRVRPPRLPRPRPRPNQRPRP: the “shrunken log2 fold change” value amounted to 0.0593.
Take RRIRQRPPRLPRPRPRPEVVPRP: the “shrunken log2 fold change” value was 0.196.
Regarding RRIRTRPPRLPRPRPRPDTEPRP, the “shrunken log2 fold change” value is -0.072.
Regarding RRIRLRPPRLPRPRPRPGSTPRP, the “shrunken log2 fold change” value was -0.381.
For RRIRTRPPRLPRPRPRPYHEPRP, the “shrunken log2 fold change” value was -0.0196.
As for RRIRGRPPRLPRPRPRPEFRPRP, the “shrunken log2 fold change” value amounted to 0.634.
RRIRNRPPRLPRPRPRPLQIPRP: the “shrunken log2 fold change” value was -0.143.
RRIRFRPPRLPRPRPRPHDCPRP: the “shrunken log2 fold change” value was -0.0297.
For RRIRNRPPRLPRPRPRPEVRPRP the value was 0.292.
As for RRIRQRPPRLPRPRPRPARAPRP, the “shrunken log2 fold change” value stood at 1.22.
On to RRIRDRPPRLPRPRPRPYTMPRP, for which the “shrunken log2 fold change” value is -0.0014.
As to RRIRRRPPRLPRPRPRPSGYPRP, the “shrunken log2 fold change” value is -0.201.
Take RRIRLRPPRLPRPRPRPYTDPRP: the “shrunken log2 fold change” value was -0.348.
RRIRDRPPRLPRPRPRPHDVPRP: the “shrunken log2 fold change” value was -0.00973.
As to RRIRKRPPRLPRPRPRPNVAPRP, the “shrunken log2 fold change” value came out at 0.387.
RRIRQRPPRLPRPRPRPHEPPRP: the “shrunken log2 fold change” value was -0.00369.
For RRIRMRPPRLPRPRPRPARFPRP the value was 0.251; for RRIRLRPPRLPRPRPRPAAHPRP, 0.163.
In the case of RRIRCRPPRLPRPRPRPCEKPRP, the “shrunken log2 fold change” value came to 0.0534.
For RRIRTRPPRLPRPRPRPLMVPRP the value was -0.32.
For RRIRRRPPRLPRPRPRPMWSPRP the value was 0.311.
As to RRIRVRPPRLPRPRPRPTGCPRP, the “shrunken log2 fold change” value worked out at 0.0918.
RRIRSRPPRLPRPRPRPNFQPRP: the “shrunken log2 fold change” value was -0.089.
Consider RRIRARPPRLPRPRPRPNEYPRP, for which the “shrunken log2 fold change” value is -0.284.
Consider RRIRVRPPRLPRPRPRPPNEPRP, for which the “shrunken log2 fold change” value was 0.345.
As to RRIRSRPPRLPRPRPRPRCYPRP, the “shrunken log2 fold change” value is -0.107.
In the case of RRIRWRPPRLPRPRPRPALQPRP, the “shrunken log2 fold change” value is 0.367.
For the sequence RRIRTRPPRLPRPRPRPVGEPRP, the “shrunken log2 fold change” value is -0.0292.
For RRIRDRPPRLPRPRPRPILVPRP the value was 0.0243; for RRIRERPPRLPRPRPRPCKWPRP, 0.0276.
With RRIRVRPPRLPRPRPRPMNQPRP, the “shrunken log2 fold change” value is -0.0672.
For RRIRCRPPRLPRPRPRPKDCPRP the value was -0.0763; for RRIRQRPPRLPRPRPRPTTAPRP, -0.00139; for RRIRSRPPRLPRPRPRPHMQPRP, -0.264.
Take RRIRNRPPRLPRPRPRPMMWPRP: the “shrunken log2 fold change” value was -0.0283.
Regarding RRIRVRPPRLPRPRPRPTWRPRP, the “shrunken log2 fold change” value turned out to be 0.686.
For RRIRRRPPRLPRPRPRPCAMPRP the value was -0.0039; for RRIRVRPPRLPRPRPRPIDYPRP, 0.0808; for RRIRLRPPRLPRPRPRPVPAPRP, 0.222.
For RRIRSRPPRLPRPRPRPELGPRP the value was 0.547; for RRIRFRPPRLPRPRPRPQFQPRP, 0.0151; for RRIRNRPPRLPRPRPRPYNCPRP, -0.385.
Take RRIRDRPPRLPRPRPRPHWIPRP: the “shrunken log2 fold change” value was -0.693.
For RRIRNRPPRLPRPRPRPKFNPRP the value was -0.569.
For the sequence RRIRCRPPRLPRPRPRPHRAPRP, the “shrunken log2 fold change” value was -0.096.
For the sequence RRIRWRPPRLPRPRPRPDGQPRP, the “shrunken log2 fold change” value is -0.000921.
For the sequence RRIRRRPPRLPRPRPRPASPPRP, the “shrunken log2 fold change” value stood at 0.314.
Regarding RRIRERPPRLPRPRPRPYNCPRP, the “shrunken log2 fold change” value came out at 0.275.
For RRIRHRPPRLPRPRPRPVNRPRP, the “shrunken log2 fold change” value was -0.26.
For RRIRWRPPRLPRPRPRPRHQPRP the value was -0.0137.
With RRIRQRPPRLPRPRPRPARNPRP, the “shrunken log2 fold change” value was 0.298.
For RRIRTRPPRLPRPRPRPNTAPRP, the “shrunken log2 fold change” value was -0.0235.
For RRIRQRPPRLPRPRPRPYNEPRP the value was -0.184; for RRIRRRPPRLPRPRPRPMYAPRP, 0.148.
For RRIRLRPPRLPRPRPRPCNQPRP the value was -1.15; for RRIRRRPPRLPRPRPRPDSSPRP, -0.118.
On to RRIRIRPPRLPRPRPRPKYAPRP, for which the “shrunken log2 fold change” value was -0.118.
Take RRIRLRPPRLPRPRPRPQWDPRP: the “shrunken log2 fold change” value was -0.00172.
Turning to RRIRYRPPRLPRPRPRPWNGPRP, the “shrunken log2 fold change” value was -0.155.
RRIRVRPPRLPRPRPRPGVFPRP: the “shrunken log2 fold change” value worked out at 0.117.
RRIRTRPPRLPRPRPRPDPFPRP: the “shrunken log2 fold change” value was -0.0199.
As to RRIRYRPPRLPRPRPRPRPHPRP, the “shrunken log2 fold change” value is -0.0677.
For RRIRNRPPRLPRPRPRPAQQPRP the value was 0.017; for RRIRYRPPRLPRPRPRPCDLPRP, -0.618.
Consider RRIRHRPPRLPRPRPRPTDYPRP, for which the “shrunken log2 fold change” value came to 0.029.
For RRIRERPPRLPRPRPRPHIAPRP, the “shrunken log2 fold change” value was -0.099.
Turning to RRIRGRPPRLPRPRPRPDPVPRP, the “shrunken log2 fold change” value was 0.951.
On to RRIRERPPRLPRPRPRPDRWPRP, for which the “shrunken log2 fold change” value was -0.0318.
Take RRIRDRPPRLPRPRPRPHAFPRP: the “shrunken log2 fold change” value was -0.0699.
Regarding RRIRHRPPRLPRPRPRPHHEPRP, the “shrunken log2 fold change” value was -0.0148.
As to RRIRPRPPRLPRPRPRPEWMPRP, the “shrunken log2 fold change” value worked out at 0.0362.
As for RRIRPRPPRLPRPRPRPQWCPRP, the “shrunken log2 fold change” value is -0.0525.
Take RRIRYRPPRLPRPRPRPLMFPRP: the “shrunken log2 fold change” value is -1.04.
For RRIRVRPPRLPRPRPRPCLIPRP, the “shrunken log2 fold change” value is -0.641.
For RRIRERPPRLPRPRPRPCIPPRP, the “shrunken log2 fold change” value is -0.109.
Regarding RRIRVRPPRLPRPRPRPHGNPRP, the “shrunken log2 fold change” value is -0.0331.
As for RRIRVRPPRLPRPRPRPFGHPRP, the “shrunken log2 fold change” value is 0.13.
For RRIRHRPPRLPRPRPRPFRTPRP the value was -0.0018; for RRIRGRPPRLPRPRPRPVALPRP, 0.639.
As for RRIRWRPPRLPRPRPRPQSLPRP, the “shrunken log2 fold change” value amounted to 0.00606.
As for RRIRNRPPRLPRPRPRPPKKPRP, the “shrunken log2 fold change” value was -0.166.
RRIRRRPPRLPRPRPRPVIIPRP: the “shrunken log2 fold change” value was -0.106.
Turning to RRIRWRPPRLPRPRPRPLCQPRP, the “shrunken log2 fold change” value is 0.0938.
On to RRIRARPPRLPRPRPRPGKVPRP, for which the “shrunken log2 fold change” value is 0.0119.
For RRIRPRPPRLPRPRPRPLVYPRP the value was -0.0742; for RRIRSRPPRLPRPRPRPECIPRP, 0.00247; for RRIRTRPPRLPRPRPRPRWSPRP, 0.0798.
For RRIRERPPRLPRPRPRPDSYPRP, the “shrunken log2 fold change” value was -0.00865.
Consider RRIRPRPPRLPRPRPRPRQIPRP, for which the “shrunken log2 fold change” value was -0.0965.
Consider RRIRKRPPRLPRPRPRPDVEPRP, for which the “shrunken log2 fold change” value was 0.962.
Take RRIRLRPPRLPRPRPRPFSIPRP: the “shrunken log2 fold change” value was -0.158.
On to RRIRIRPPRLPRPRPRPRTIPRP, for which the “shrunken log2 fold change” value is -0.141.
Consider RRIRYRPPRLPRPRPRPAKVPRP, for which the “shrunken log2 fold change” value turned out to be 0.00738.
For the sequence RRIRCRPPRLPRPRPRPQPCPRP, the “shrunken log2 fold change” value was found to be 0.0038.
Consider RRIRHRPPRLPRPRPRPVAIPRP, for which the “shrunken log2 fold change” value was 2.06.
As to RRIRVRPPRLPRPRPRPNQKPRP, the “shrunken log2 fold change” value was -0.115.
For RRIRRRPPRLPRPRPRPQCPPRP, the “shrunken log2 fold change” value was -0.178.
Take RRIRPRPPRLPRPRPRPTLAPRP: the “shrunken log2 fold change” value stood at 0.332.
For RRIRFRPPRLPRPRPRPLNRPRP, the “shrunken log2 fold change” value is -0.196.
In the case of RRIRQRPPRLPRPRPRPFNFPRP, the “shrunken log2 fold change” value is -0.16.
On to RRIRYRPPRLPRPRPRPGGVPRP, for which the “shrunken log2 fold change” value was -0.332.
For RRIRPRPPRLPRPRPRPLHTPRP the value was -0.128; for RRIRLRPPRLPRPRPRPMEWPRP, -0.0102; for RRIRERPPRLPRPRPRPSFPPRP, -0.704.
In the case of RRIRWRPPRLPRPRPRPIMKPRP, the “shrunken log2 fold change” value is -0.0768.
As for RRIRSRPPRLPRPRPRPSDNPRP, the “shrunken log2 fold change” value was -0.249.
Turning to RRIRRRPPRLPRPRPRPRTQPRP, the “shrunken log2 fold change” value is 0.19.
For RRIRPRPPRLPRPRPRPCEVPRP the value was 0.00799.
For RRIRVRPPRLPRPRPRPRDAPRP the value was 0.422.
As for RRIRDRPPRLPRPRPRPKIHPRP, the “shrunken log2 fold change” value is -0.214.
With RRIRMRPPRLPRPRPRPSIHPRP, the “shrunken log2 fold change” value is -0.823.
Regarding RRIRGRPPRLPRPRPRPILMPRP, the “shrunken log2 fold change” value is -0.05.
For RRIRIRPPRLPRPRPRPPTMPRP the value was -0.0339; for RRIRHRPPRLPRPRPRPGCVPRP, 0.000164.
On to RRIRLRPPRLPRPRPRPQQGPRP, for which the “shrunken log2 fold change” value was -0.0774.
For RRIRFRPPRLPRPRPRPMEPPRP the value was 0.039; for RRIRFRPPRLPRPRPRPVLMPRP, -0.13.
For RRIRFRPPRLPRPRPRPAWGPRP the value was 0.144.
As to RRIRLRPPRLPRPRPRPWWTPRP, the “shrunken log2 fold change” value was -0.312.
Regarding RRIRMRPPRLPRPRPRPTGTPRP, the “shrunken log2 fold change” value turned out to be 0.407.
For RRIRQRPPRLPRPRPRPQLQPRP the value was 0.112; for RRIRWRPPRLPRPRPRPGILPRP, 0.0649; for RRIRFRPPRLPRPRPRPRFSPRP, 0.033.
For the sequence RRIRGRPPRLPRPRPRPLATPRP, the “shrunken log2 fold change” value is 2.95.

The values above are taken from the supplement of paper PMC9112550, “Optimization of the antimicrobial peptide Bac7 by deep mutational scanning” (BMC Biology, 2022).
